The target in one assay is T1, fibrin clots (Homo sapiens, UniProt P02671+P02675+P02679).
T1 sequence (P02671 36-866 limits assumed): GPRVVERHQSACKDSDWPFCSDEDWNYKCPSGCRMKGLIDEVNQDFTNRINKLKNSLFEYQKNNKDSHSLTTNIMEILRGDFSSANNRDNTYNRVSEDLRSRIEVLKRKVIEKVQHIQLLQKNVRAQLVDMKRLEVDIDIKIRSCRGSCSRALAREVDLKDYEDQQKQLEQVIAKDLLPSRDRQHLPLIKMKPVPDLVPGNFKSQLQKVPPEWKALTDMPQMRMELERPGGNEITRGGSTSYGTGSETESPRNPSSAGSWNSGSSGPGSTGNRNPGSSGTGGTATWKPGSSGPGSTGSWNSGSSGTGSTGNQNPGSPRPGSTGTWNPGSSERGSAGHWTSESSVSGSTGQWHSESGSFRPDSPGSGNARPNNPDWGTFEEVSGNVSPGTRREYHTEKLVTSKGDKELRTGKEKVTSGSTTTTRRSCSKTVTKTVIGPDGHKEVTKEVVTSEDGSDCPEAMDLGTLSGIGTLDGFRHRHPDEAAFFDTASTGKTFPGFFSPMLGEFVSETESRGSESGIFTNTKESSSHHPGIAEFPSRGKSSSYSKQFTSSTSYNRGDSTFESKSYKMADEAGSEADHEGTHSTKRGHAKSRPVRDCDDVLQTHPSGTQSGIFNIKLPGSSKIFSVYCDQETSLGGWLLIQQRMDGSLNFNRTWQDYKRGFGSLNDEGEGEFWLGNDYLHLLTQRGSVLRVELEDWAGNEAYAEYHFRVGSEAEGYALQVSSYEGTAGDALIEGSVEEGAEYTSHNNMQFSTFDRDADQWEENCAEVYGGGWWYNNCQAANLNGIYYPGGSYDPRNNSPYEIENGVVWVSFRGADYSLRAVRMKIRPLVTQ
T1 sequence (P02675 45-491 limits assumed): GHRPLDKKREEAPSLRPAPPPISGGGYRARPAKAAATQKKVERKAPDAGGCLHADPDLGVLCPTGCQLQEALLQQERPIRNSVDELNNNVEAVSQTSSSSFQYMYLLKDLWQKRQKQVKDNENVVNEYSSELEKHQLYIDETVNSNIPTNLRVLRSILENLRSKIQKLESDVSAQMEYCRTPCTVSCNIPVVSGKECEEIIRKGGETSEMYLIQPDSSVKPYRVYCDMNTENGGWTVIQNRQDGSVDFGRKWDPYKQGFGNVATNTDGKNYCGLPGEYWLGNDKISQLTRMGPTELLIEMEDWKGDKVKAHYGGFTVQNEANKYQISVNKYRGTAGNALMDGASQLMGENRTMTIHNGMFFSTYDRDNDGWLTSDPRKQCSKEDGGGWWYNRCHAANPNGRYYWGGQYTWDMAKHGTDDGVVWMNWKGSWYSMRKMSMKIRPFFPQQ
T1 sequence (P02679 27-453): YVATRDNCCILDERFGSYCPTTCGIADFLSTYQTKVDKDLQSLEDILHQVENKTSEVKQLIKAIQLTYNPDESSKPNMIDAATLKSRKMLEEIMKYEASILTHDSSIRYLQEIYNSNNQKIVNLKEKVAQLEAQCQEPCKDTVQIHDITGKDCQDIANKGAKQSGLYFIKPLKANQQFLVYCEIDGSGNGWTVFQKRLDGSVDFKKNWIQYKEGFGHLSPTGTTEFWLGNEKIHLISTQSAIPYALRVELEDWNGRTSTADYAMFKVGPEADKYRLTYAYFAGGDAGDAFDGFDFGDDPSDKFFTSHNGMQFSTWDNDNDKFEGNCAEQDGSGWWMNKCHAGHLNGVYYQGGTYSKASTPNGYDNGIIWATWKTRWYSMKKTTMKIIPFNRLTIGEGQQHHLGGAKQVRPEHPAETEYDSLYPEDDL
The assay can be described thus: Stability of fibrin clots with aprotinin covalently bound through FS-anchors. The class given is biochemical. The note with it: aprotinin EDC-coupled to the FS-anchor, clots kept in PBS at 37° C., after 5 days; compared with His-FGF-2 and pep1 anchors. From the text: Aprotinin was successfully covalently bound to one FS-anchor (His-FGF-2, pep1 (68 an), pep3 (37 aa) and pep4 (28 aa)) using a standard protocol for 1-ethyl-3-(3-dimethylaminopropyl)carbodiimide) (EDC) coupling (FIG. 8A). For a positive control recombinant human FGF-2 (ProSpec Tany, Israel) and for a negative control phosphate buffered saline (PBS) were used. Covalently linked to a FS-anchor and purified aprotinin was mixed with fibrinogen and finally with thrombin to form fibrin clots. These fibrin clots were kept in PBS at 37° C. to observe stability and degradation of fibrin.

Another assay deals with T2, fibrin (Homo sapiens, UniProt P02671+P02675+P02679).
T2 construct: an activity for processing fibrinogen to fibrin, preferably a thrombin preparation; purchased Baxter AG, Vienna (Tisseel fibrinogen and Tisseel thrombin)
T2 sequence (P02671 36-866 limits assumed): T1 sequence (P02671 36-866 limits assumed)
T2 sequence (P02675 45-491 limits assumed): T1 sequence (P02675 45-491 limits assumed)
T2 sequence (P02679 27-453): T1 sequence (P02679 27-453)
Put plainly: Fibrin binding assay by ELISA. The note with it: fibrinogen-coated plate incubated with 10 I.U./ml thrombin, various concentrations. As to the method:
A polystyrene 96-well plate (Nunc® Maxisorp EUSA-plates) was coated with 1 mg/ml fibrinogen (Tisseel®, Baxter AG, Vienna) overnight at 4° C. and then blocked with blocking solution (PBS+1% BSA) for 2 hours at room temperature CRT). After washing three times with PBS, purified peptides were added in various dilutions to the plate and incubated for 1 hour at RT. After the three times washing with PBS, a monoclonal anti-His6-peroxidase antibody (Sigma-Aldrich, Vienna), diluted in PBS+0.1% Tween (Sigma-Aldrich, Vienna) was added and incubated for 1 hour at RT. Finally, the plate was washed three times with PBS again and wells were incubated with o-phenylenediaminehydrochlorid substrate. Absorbance was measured at 492 nm and 620 nm. For fibrin binding analysis, the plate was first coated with fibrinogen overnight at 4° C. and then incubated with 10 I.U./ml thrombin (Tisseel, Baxter AG, Vienna) for 30 minutes at 37° C. The following procedure was the same as described above. […] The signals were detected and recorded at the Reichert SR7000 Surface Plasmon Resonance Analytical Instrument (Reichert Analytical, NY, USA). […]

As for “EDGRLLASKCVTDECFFFERLESNNYNTYRSRHHHHH (EDGRLLASKCVTDECFFFERLESNNYNTYRSRHHHHH; synthetic peptide pep 3 (37 aa), peptide #3, pep3 with C-terminus 5x HIS-tag) [also expressed recombinantly]”, the “stability of fibrin clots” value with fibrin clots is “higher stability”.
For “FERLESNNYN TYRSRHHHHH (FERLESNNYNTYRSRHHHHH; synthetic peptide pep 5 (20 aa), peptide #5, pep5 with C-terminus 5x HIS-tag)”, the “binding affinity to fibrin” value with fibrin was “little binding affinity”.
Regarding “KCVTDECFFF ERLESNNYNT YRSRHHHHH (KCVTDECFFFERLESNNYNTYRSRHHHHH; synthetic peptide pep 4 (29 aa), peptide #4, pep4 with C-terminus 5x HIS-tag)”, in the assay with fibrin clots, the “stability of fibrin clots” value is on record as “higher stability”.

The record behind these values is patent US20120316113A1, “FGF BASED FIBRIN BINDING PEPTIDES” (Baxter Healthcare S.A., priority 2011, published 2012).
